The record followed here is publication PMC2963168, “Identification, Cloning, and Characterization of L-Phenylserine Dehydrogenase from Pseudomonas syringae NK-15” (Enzyme Research, 2010).

Data set [1] concerns the target L-phenylserine dehydrogenase (ORF3) from Pseudomonas syringae NK-15 (Pseudomonas syringae NK-15). The data set is described as follows: SEC; HPLC gel filtration on a TSK-GEL G3000SW column (0.75 x 60 cm) at room temperature, 0.1 M potassium phosphate buffer (pH 7.0) with 0.2 M NaCl, 0.7 ml/min; native mass 98 kDa against a subunit of 27 kDa by SDS-PAGE. For orientation: SEC sorts molecules by how far they enter the pores of the column.

Substrate in data set [2]: NC(C(=O)O)C(O)c1ccccc1
Description: purified protein. It is filed as biochemical, Pseudomonas syringae. The conditions noted are these: NAD+ as co-substrate, 0.2 M glycine-KCl-KOH pH 10.5, 30°C (standard assay), racemic DL-threo substrate.

Substrate in data set [3]: NC(=O)c1ccc[n+]([C@@H]2O[C@H](COP(=O)(O)OP(=O)(O)OC[C@H]3O[C@@H](n4cnc5c(N)ncnc54)[C@H](O)[C@@H]3O)[C@@H](O)[C@H]2O)c1
Description: purified protein. It is filed as biochemical, Pseudomonas syringae. The conditions noted are these: DL-threo-β-phenylserine as co-substrate, 0.2 M glycine-KCl-KOH pH 10.5, 30°C (standard assay), varied: cofactor.

A word on the stoichiometry N: it is the number of molecules, sites or subunits per partner or assembly. “L-phenylserine dehydrogenase (ORF3) from Pseudomonas syringae NK-15 (enzyme)” displayed a stoichiometry N in data set [1] of 4.

B1: L-phenylserine dehydrogenase (ORF3; L-PSDH) (Pseudomonas syringae) (protein)
chain: MSFPVCLVTGAATGIGAATALRFARDGWGVAINNFDDSTRADAERVAAQCREAGAQTLVIDADVGDDGACRRMVEQVAAQWGRIDALVNSAGTTRVIPHSDFEAIDPDEFERIYRVNLIGMFQMTRAATPLLRESFCPGHFASVLHVSSLASLYGTGLHPAYAASKGAVNSLTLSLARNLAPLVRVNAIAPGMVDDGLLRRVLGDEADGRVVESMRENAPLKRVSQPAEIAELAWFLAAHAPAMTGQVLAIENGLLLNT
notes: 98 kDa native, probably homotetramer; AB499092 is the 9,246-bp operon entry, which also holds D-phenylserine dehydrogenase (orf5)
What is called Km is the substrate concentration at which the rate is half of its maximum. B1: the Km in “purified protein [2]” worked out at 59 mM; in the data set “purified protein [3]” it was 2.1 mM.
